T1: human CD25, captured for SPR (human, UniProt P01589 22-240)
T1 sequence (looked up): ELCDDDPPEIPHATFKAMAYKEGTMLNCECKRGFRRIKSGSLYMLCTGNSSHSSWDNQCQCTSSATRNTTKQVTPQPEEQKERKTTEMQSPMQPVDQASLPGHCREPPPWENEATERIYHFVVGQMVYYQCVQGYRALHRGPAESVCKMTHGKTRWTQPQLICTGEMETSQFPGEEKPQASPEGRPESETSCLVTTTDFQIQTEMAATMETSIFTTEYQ

T2: biot-mCD25(22-186)-BioP-TVMV-His, His cleaved (mouse, UniProt P01590 22-186, biotin)
T2 sequence (looked up): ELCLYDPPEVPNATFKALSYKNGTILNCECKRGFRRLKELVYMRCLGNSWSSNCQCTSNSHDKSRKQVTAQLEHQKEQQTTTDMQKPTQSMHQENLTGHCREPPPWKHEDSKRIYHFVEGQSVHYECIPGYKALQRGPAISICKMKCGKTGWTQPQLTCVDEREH

T3: mCD122(27-241)-hFc-D/mCD132(23-263)-hFc-K heterodimeric Fc fusion (mouse, UniProt P16297 27-241; P34902 23-263)
T3 sequence (looked up) 1: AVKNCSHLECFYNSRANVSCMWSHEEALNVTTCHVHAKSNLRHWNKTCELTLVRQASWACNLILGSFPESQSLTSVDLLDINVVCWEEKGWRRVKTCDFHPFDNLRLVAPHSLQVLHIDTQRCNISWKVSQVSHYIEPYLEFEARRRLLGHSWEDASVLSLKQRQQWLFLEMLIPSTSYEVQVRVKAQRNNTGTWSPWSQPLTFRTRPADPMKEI
T3 sequence (looked up) 2: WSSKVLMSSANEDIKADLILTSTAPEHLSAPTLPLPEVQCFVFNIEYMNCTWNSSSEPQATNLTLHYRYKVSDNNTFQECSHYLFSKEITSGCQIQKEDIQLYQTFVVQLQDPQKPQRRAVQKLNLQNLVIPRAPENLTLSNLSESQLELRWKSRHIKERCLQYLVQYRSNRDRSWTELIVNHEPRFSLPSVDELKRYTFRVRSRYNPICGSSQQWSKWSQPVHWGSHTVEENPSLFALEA


What was measured:
[1] = target: T1, human CD25, captured for SPR; experiment: SPR
[2] = target: T2, biot-mCD25(22-186)-BioP-TVMV-His, His …; experiment: SPR
SEC-MALS = target: the molecule itself; experiment: SEC-MALS
[3] = target: T3, mCD122(27-241)-hFc-D/mCD132(23-263)-hFc- …; experiment: SPR

Binder	fold weaker Kd than mIL-2 to mCD25 [1] [fold]	fold stronger affinity than mIL-2/mCD25 to mCD25 [2] [fold]	stoichiometry N (SEC-MALS)	fold weaker binding than mIL-2 to mIL-2Rβ/γc [3] [fold]	fold weaker apparent Kd than mIL-2 to mCD25 [2] [fold]	fold weaker apparent Kd than mIL-2 to mIL-2Rβ/γc [3] [fold]
mouse IL-2 (ligand, UniProt P04351 21-169, looked up) APTSSSTSSSTAEAQQQQQQQQQQQQHLEQLLMDLQELLSRMENYRNLKLPRMLTFKFYLPKQATELKDLQCLEDELGPLRHVLDLTQSKSFQLEDAENFISNIRVTVVKLKGSDNTFECQFDDESATVVDFLRRWIAFCQSIISTSPQ	~234					
mIL-2/hCD25 mouse/human chimeric fusion protein with the 12 amino acid (G3S)3 linker (other, mouse | human, glycosylated) APTSSSTSSSTAEAQQQQQQQQQQQQHLEQLLMDLQELLSRMENYRNLKLPRMLTFKFYLPKQATELKDLQCLEDELGPLRHVLDLTQSKSFQLEDAENFISNIRVTVVKLKGSDNTFECQFDDESATVVDFLRRWIAFCQSIISTSPQGGGSGGGSGGGSELCDDDPPEIPHATFKAMAYKEGTMLNCECKRGFRRIKSGSLYMLCTGNSSHSSWDNQCQCTSSATRNTTKQVTPQPEEQKERKTTEMQSPMQPVDQASLPGHCREPPPWENEATERIYHFVVGQMVYYQCVQGYRALHRGPAESVCKMTHGKTRWTQPQLICTGEMETSQFPGEEKPQASPEGRPESETSCLVTTTDFQIQTEMAATMETSIFTTEYQGG		10	2	45		
mIL-2/mCD25 fusion protein with the 12 amino acid (G3S)3 linker (other, mouse, glycosylated (N- and O-linked carbohydrate)) APTSSSTSSSTAEAQQQQQQQQQQQQHLEQLLMDLQELLSRMENYRNLKLPRMLTFKFYLPKQATELKDLQCLEDELGPLRHVLDLTQSKSFQLEDAENFISNIRVTVVKLKGSDNTFECQFDDESATVVDFLRRWIAFCQSIISTSPQGGGSGGGSGGGSELCLYDPPEVPNATFKALSYKNGTILNCECKRGFRRLKELVYMRCLGNSWSSNCQCTSNSHDKSRKQVTAQLEHQKEQQTTTDMQKPTQSMHQENLTGHCREPPPWKHEDSKRIYHFVEGQSVHYECIPGYKALQRGPAISICKMKCGKTGWTQPQLTCVDEREHHRFLASEESQGSRNSSPESETSCPITTTDFPQPTETTAMTETFVLTMEYKGG			2		~1000	~680
